The target in assay [1] is T1, human 4-1BB on CHO-K1 cells (human, UniProt Q07011 24-255).
T1 construct: whole, on cells; also called CHO-K1/hu 4-1BB; CHO-K1/hu4-1BB
The assay is described as follows: FACS, CHO-K1/hu 4-1BB cells. A general note: A flow cytometer gives signals particle by particle.

Assay [2] has as its target T2, histidine-labeled cynomolgus monkey 4-1BB protein (cynomolgus monkey).
T2 construct: also called Monkey 4-1BB protein antigen (histidine-labeled); cynomolgus monkey 4-1BB protein and his tag (Acrobiosystem, #41B-052H4)
In words: BLI Octet RED96, AHC sensor, his-tagged antigen. The protocol:
(§1) Specifically, human 4-1BB protein and his tag (Acrobiosystem, #41B-H5227), or cynomolgus monkey 4-1BB protein and his tag (Acrobiosystem, #41B-052H4), were diluted to 400 nM with PBS buffer (pH 7.4) containing 0.1% (w/w) BSA and 0.02% (v/v) Tween 20, and incubated with the AHC sensor. A 40 nM 4-1BB antibody was incubated with the AHC sensor loaded with human 4-1BB protein or monkey 4-1BB protein at 30° C. for 3 min. The reaction mixture was incubated in PBS buffer (pH 7.4) containing 0.1% (v/w) BSA and 0.02% (v/v) Tween 20 at 30° C. for another 5 min The binding and separation signals between the 4-1BB antibody and 4-1BB protein were recorded by Octet Red 96 in real time. The affinity and association and dissociation constants were determined by Octet using software.
A general note: In BLI a coated tip is dipped into the sample, and binding shifts an interference pattern.

Assay [3] has as its target T3, histidine-labeled human 4-1BB protein (human, UniProt Q07011 24-186).
T3 construct: also called Human 4-1BB protein antigen (histidine-labeled); human 4-1BB protein and his tag (Acrobiosystem, #41B-H5227); not shown: histidine tag
In words: BLI Octet RED96, AHC sensor, his-tagged antigen. As for the experimental part:
as §1

The values that follow come from US20230242658A1 (published 2023).

T1 sequence (Q07011 24-255): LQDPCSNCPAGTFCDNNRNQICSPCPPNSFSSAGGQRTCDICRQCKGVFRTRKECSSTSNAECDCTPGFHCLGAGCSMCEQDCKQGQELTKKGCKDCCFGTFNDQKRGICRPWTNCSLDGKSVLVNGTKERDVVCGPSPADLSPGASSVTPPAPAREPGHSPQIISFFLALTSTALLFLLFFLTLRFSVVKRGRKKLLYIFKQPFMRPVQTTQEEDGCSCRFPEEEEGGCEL
T3 sequence (Q07011 24-186): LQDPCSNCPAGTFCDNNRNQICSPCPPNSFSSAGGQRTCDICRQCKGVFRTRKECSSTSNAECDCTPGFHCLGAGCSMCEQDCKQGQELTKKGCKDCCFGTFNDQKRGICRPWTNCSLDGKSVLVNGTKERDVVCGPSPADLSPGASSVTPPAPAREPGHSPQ

B1: PR001768 (antibody, human IgG1, V domains shown)
VH: EVQLLESGGGLVQPGGSLRLSCAASGFTFSNYAMTWVRQAPGKGLEWVSSISGSGDSTYYADSVKGRFTISRDNSKNTLYLQMNSLRAEDTAVYYCAKEGTGTTSDYYYNVDVWGQGTTVTVSS
notes: HCAb, heavy chain only, human IgG1 Fc; also called 1016P0039B9
For B1, in assay [1], the binding result was “binds”.

B2: PR001837 (antibody, human IgG1, V domains shown)
VH: EVQLLESGGGLVQPGGSLRLSCEASGFTFSSYAMSWVRQAPEKGLEWVSSISGSGGSTFYADSVKGRFTISRDNSKNTLYLQMNSLRAEDTAVYYCAKEGTTETDDYHYNMDVWGQGTTVTVSS
notes: HCAb, heavy chain only, human IgG1 Fc; also called 1016P0024B10
In the case of B2, the binding result in assay [1] is given as “binds”.

B3: PR001766 (antibody, human IgG1, V domains shown)
VH: EVQLLESGGGLVQPGGSLRLSCAASGFTFSSYAMSWGRQAPGKGLEWVSSISGSGGSTYYADSVKGRFTISRDNSKNTLYLQMNSLRAEDTAVYYCAKEKTGTTGDYYYDMDVWGQGTTVTVSS
notes: HCAb, heavy chain only, human IgG1 Fc; also called 1016P0034F10
For the molecule B3, in assay [1], the binding result is “binds”.

B4: PR001842 (antibody, human IgG1, V domains shown)
VH: EVQLLESGGGLVQPGGSLRLSCAASGFTFSSYAMSWGRQAPGKGLEWVSAISGSGGSTYYADSVKGRFTISRDNSKNTLYLHMNSLRAEDTAVYYCAKEKVATTGDYYYDMDVWGQGTTVTVSS
notes: HCAb, heavy chain only, human IgG1 Fc; also called 1016P0045A3
Turning to B4, the binding result in assay [1] is “binds”.

B5: PR001781 (antibody, human IgG1, V domains shown)
VH: EVQLLESGGGLVQLGGSLRLSCAASGFTFSSYAMTWVRQAPEKGLEWVSSISGSGGNTYYADSVKGRFTISRDNSKNTLYLQMNSLRAEDTAVYYCAKERTGTTGDYYYNVDVWGQGTTVTVSS
notes: HCAb, heavy chain only, human IgG1 Fc; also called 1016P007F3
For B5, in assay [1], the binding result is “binds”.

B6: PR001780 (antibody, human IgG1, V domains shown)
VH: EVQLLESGGGLIQPGGSLRLSCAASGFTFSSFAMTWVRQAPGKGLEWVSTISGSGDNTYYADSVKGRFTISRDNSKNTLYLQMNSLRAEDTAVYFCAKEDTAVASDYYYNIDVWGQGTTVTVSS
notes: HCAb, heavy chain only, human IgG1 Fc; also called 1016P0058D11
Consider B6, for which the binding result in assay [1] was “binds”.

B7: PR007381 (antibody, human IgG1, V domains shown)
VH: EVQLLESGGGLVQPGGSLRLSCAASGFTFSNYAMSWVRQAPGKGLEWVSSIDASGGDTYYADSVKGRFTISRDNSKNTLYLQMNSLRAEDTAVYYCAKEGSHGTDDSHYDVDVWGQGTTVTVSS
notes: HCAb, variant of PR001838 (F37V, P40A, E42G, T43K, K46E, G53A), human IgG1
As to B7, the binding result in assay [1] is given as “binds”.

B8: PR001771 (antibody, human IgG1, V domains shown)
VH: EVQLLESGGGLVQPGGSLRLSCAASGFTFSNYAMTWVRQPPGKGLEWVSSISGSGGSTYYADSVKGRFTISRDNSKNTLYLQMNSLRAEDTAVYYCAKEGTGTTSDYYYNVDVWGQGTTVTVSS
notes: HCAb, heavy chain only, human IgG1 Fc; also called 1016P0042C5
For the molecule B8, in assay [1], the binding result is reported as “binds”.

B9: PR001834 (antibody, human IgG1, V domains shown)
VH: EVQLLESGGGLVQPGGSLRLSCAASGFTFSGYAMTWVRQPPEKGLEWVSSISGSGNNTFYADSVKGRFTISRDNSKNTLYLQMNSLRAEDTAVYYCAKEGTTETDDYHYNMDVWGQGTTVTVSS
notes: HCAb, heavy chain only, human IgG1 Fc; also called 1016P0019C9
Regarding B9, the binding result in assay [1] is “binds”.

B10: PR001831 (antibody, human IgG1, V domains shown)
VH: EVQLVESGGGVIQPGGSLRLSCEASGFTFSSYAMSWVRQAPEKGLEWVSSISGSGDSTYYADSVKGRFTISRDNSKNTLYLQMNSLRAEDTAGYHCAKEGSNGTDDYHYDIDVWGQGTSVTVSS
notes: HCAb, heavy chain only, human IgG1 Fc; also called 1016P0015C8
As a reminder, the EC50 is the concentration at which the effect is half-maximal. B10: the EC50 in assay [1] was less than 0.0003 µM.

B11: PR001830 (antibody, human IgG1, V domains shown)
VH: EVQLLESGGGLVQPGGSLRLSCTASGFTFSNYAMSWVRQAPEKGLEWVSSISGSGGSTFYADSVKGRFTISRDNSKNTLYLQMNSLRAEDTAVYFCAKEGSSETDDHYYNVDVWGQGTTVTVSS
notes: HCAb, heavy chain only, human IgG1 Fc; also called 1016P0014G8
As a reminder, the Kd is a measure of binding affinity in units of concentration. As a reminder, the koff is the first-order rate constant of dissociation. The kon is the rate constant with which the complex forms. Take B11: in assay [2], the Kd is 0.0181 µM, the Response was 0.222, the koff is 0.00347 s⁻¹ and the kon was 192000 M⁻¹ s⁻¹. In assay [3], this molecule had a Kd of 0.0249 µM, a Response of 0.307, a koff of 0.00664 s⁻¹ and a kon of 266000 M⁻¹ s⁻¹. In assay [1], this molecule gave an EC50 of less than 0.0003 µM.

B12: PR001763 (antibody, human IgG1, V domains shown)
VH: EVQLLESGGGLVQPGGSLRLSCTASGFTFSNYAMSWVRQAPEKGLEWVSSISGSGGSTFYADSVKGRFTISRDNSKNTLYLQMNRLTAEDTAVYYCAKEGSNGTDDYHYDIDVWGQGTTVTVSS
notes: HCAb, heavy chain only, human IgG1 Fc; also called 1016P0016E9
On to B12, for which the binding result in assay [1] was “binds”.

B13: PR001833 (antibody, human IgG1, V domains shown)
VH: EVQLLESGGGLVQPGGSLRLSCAASGFTFSSYAMSWVRQAPEKGLEWVSSISGSGGSTFYADSVKGRFTISRDNSKNTLYLQMNSLRAEDTAVYFCAKEGATETDDYHFNTDVWGQGTTVTVSS
notes: HCAb, heavy chain only, human IgG1 Fc; also called 1016P0016F8
In assay [2], B13 displayed a dissociation constant (Kd) of 0.0223 µM, a Response of 0.273, a koff of 0.00309 s⁻¹ and a kon of 139000 M⁻¹ s⁻¹. In assay [3], this molecule registered a Kd of 0.0234 µM, a Response of 0.311, an off-rate constant (koff) of 0.00506 s⁻¹ and an on-rate constant (kon) of 216000 M⁻¹ s⁻¹. For the same molecule, in assay [1], the EC50 is less than 0.0003 µM.

B14: PR004469 (antibody, human IgG1, V domains shown)
VH: EVQLLESGGGLVQPGGSLRLSCAASGFTFSNYAMSWFRQPPETGLKWVSSIDASGGDTYYADSVKGRFTISRDNSKNTLYLQMNSLRAEDTAVYYCAKEGSHGTDDSHYDVDVWGQGTTVTVSS
notes: HCAb, PTM variant of PR001838 (G53A), human IgG1
As for B14, the binding result in assay [1] is reported as “binds”.

B15: PR001775 (antibody, human IgG1, V domains shown)
VH: EVQLLESGGGLVQSGGSLRLSCAASGFTFSSYAMSWVRQAPGKGLEWVSAISGSGGSTDYADSVKGRFTISRDNSTNTLYLQMNSLRAEDTAVYYCAKERAYDYSNYVDFDYWGQGTLVTVSS
notes: HCAb, heavy chain only, human IgG1 Fc; also called 1016P0046A9
Take B15: in assay [1], the binding result is recorded as “binds”.

B16: PR001764 (antibody, human IgG1, V domains shown)
VH: EVQLLESGGGLVQPGGSLRLSCAASGFTFSSYAMSWVRQAPEKGLEWVSAISGGGGSTYYADSVKGRFTISRDNSKNTLYLQMDSLKAEDTAVYYCAKEGTTETDDYHYNMDVWGQGTTVTVSS
notes: HCAb, heavy chain only, human IgG1 Fc; also called 1016P0022E5
With B16, the EC50 in assay [1] was less than 0.0003 µM.

B17: PR001776 (antibody, human IgG1, V domains shown)
VH: EVQLLESGGGLVQPGGSLRLSCAASGFTFSSYAMSWVRQAPEKGLEWVSAISSSGGSTYYADSVKGRFTISRDNSKNTLYLQMNSLRAEDTAVYYCAKDGVTTPSYYYYYDMDVWGQGTTVTVSS
notes: HCAb, heavy chain only, human IgG1 Fc; also called 1016P0049C7
For B17, the binding result in assay [1] is “binds”.

B18: PR001836 (antibody, human IgG1, V domains shown)
VH: EVQLLESGGGLVQPGGSLRLSCAASGFIFSNFAMTWVRQPPEKGLKWVSSINGSGFNTYYTDSVKGRFTISRDNSRNTLYLQMNRLTAEDTAVYFCAKEGSSETDDHYYNVDVWGQGTTVTVSS
notes: HCAb, heavy chain only, human IgG1 Fc; also called 1016P0020G4
Regarding B18, in assay [2], binding was characterised by a dissociation constant (Kd) of 0.00889 µM, the Response turned out to be 0.25, the koff was 0.00147 s⁻¹ and the kon turned out to be 165000 M⁻¹ s⁻¹. In assay [3], this molecule showed a Kd of 0.0135 µM, a Response of 0.294, a koff of 0.00322 s⁻¹ and a kon of 239000 M⁻¹ s⁻¹. The molecule further showed an EC50 in assay [1] of less than 0.0003 µM.

B19: PR001774 (antibody, human IgG1, V domains shown)
VH: EVQLVESGGGLVQPGGSLRLSCAASGFTFSSFAMTWVRQAPEKGLEWVSTISGSGDTTYYADSVKGRFTISRDSSKNTLYLQMNSLRAEDSAVYFCAKEATAMASDYYYGVDVWGQGTTVTVSS
notes: HCAb, heavy chain only, human IgG1 Fc; also called 1016P0045F7
In the case of B19, in assay [1], the binding result is reported as “binds”.

B20: PR007289 (antibody, human IgG1, V domains shown)
VH: EVQLVESGGGLVKPGGSLRLSCAASGFTFSDYYMSWFRQAPGKGLEWVSYISSSGSTQDYADSVKGRFTISRDNAKNSLYLQMNSLRAEDTAVYYCAREREPVAGTLDFDNWGQGTPVTVSS
notes: HCAb, heavy chain only, human IgG1 Fc; also called R1016P145B11
Turning to B20, the binding result in assay [1] is “binds”.

B21: PR007288 (antibody, human IgG1, V domains shown)
VH: EVQLVESGGGLVKPGGSLRLSCAASGFTFSDYYMSWFRQAPGKGLEWVSYISGSGSIIDYADSVKGRFTISRDNAKNSLYLQMNSLRAEDTAVYYCSREREAVAGTLDFDYWGQGTLVTVSS
notes: HCAb, heavy chain only, human IgG1 Fc; also called R1016P144G12
With B21, the binding result in assay [1] is “binds”.

B22: PR007290 (antibody, human IgG1, V domains shown)
VH: EVQLVESGGGVVQPGRSLRLSCAASGFTFSDYYMSWFRQAPGKGLEWVSYISSSGTTIDYADSVKGRFTISRDNAKNSLYLQMNSLRAEDTAVYYCAREREEVAGTLDFDYWGQGTPVTVSS
notes: HCAb, heavy chain only, human IgG1 Fc; also called R1016P145C05
Consider B22, for which, in assay [1], the binding result is given as “binds”.
